The numbers were not newly measured in paper PMC11170211, which cites them from elsewhere.

The data set deals with Asp102. The data set can be described thus: NMR.

Turning to “alpha-lytic protease (not stated in the article (described only as bacterial); Lysobacter enzymogenes from outside knowledge)”, the pKa entry is “below 1.5”.
